Test results from US20090233868A1, “Small antiviral peptides against hepatitis C virus” (priority 2005, published 2009).

What was measured:
[1] = test system: nonspecific RNA; experiment: Filter binding assay with nonspecific RNA probe; conditions: control probe, same filter-binding assay
[2] = test system: HCV IRES mediated translation; experiment: In vitro translation of uncapped HCV-IRES-Luc monocistronic RNA in rabbit reticulocyte lysate; assay type: biochemical, hepatitis C virus; conditions: 25 ng and 50 ng protein; data not shown

B1: wt-La: purified recombinant full-length wildtype human La protein (p52) (protein, UniProt P05455 1-408, looked up)
chain: MAENGDNEKMAALEAKICHQIEYYFGDFNLPRDKFLKEQIKLDEGWVPLEIMIKFNRLNRLTTDFNVIVEALSKSKAELMEISEDKTKIRRSPSKPLPEVTDEYKNDVKNRSVYIKGFPTDATLDDIKEWLEDKGQVLNIQMRRTLHKAFKGSIFVVFDSIESAKKFVETPGQKYKETDLLILFKDDYFAKKNEERKQNKVEAKLRAKQEQEAKQKLEEDAEMKSLEEKIGCLLKFSGDLDDQTCREDLHILFSNHGEIKWIDFVRGAKEGIILFKEKAKEALGKAKDANNGNLQLRNKEVTWEVLEGEVEKEALKKIIEDQQESLNKWKSKGRRFKGKGKGNKAAQPGSGKGKVQFQGKKTKFASDDEHDEHDENGATGPVKRAREETDKEEPASKQQKTENGAGDQ
modifications: full-length
[1]
  Binding of non-specific RNA probe (filter binding): did not show considerable binding
[2]
  Stimulation of HCV IRES mediated translation in absence of peptide: dose dependent stimulation
